Reference: CN115505041A

Target: 人EphA2 (human EphA2 on cells: 293T-EphA2 stable line and EphA2-positive tumour lines HCT116, HepG2, HCC827, MDA-MB-231) (human) (UniProt P29317)
Experiment: FACS on 293T-EphA2 cells, EphrinA1-hFc alone (positive control without hybridoma supernatant), APC anti-human IgG Fc

UniProt P29317, sequence (P29317 24-976): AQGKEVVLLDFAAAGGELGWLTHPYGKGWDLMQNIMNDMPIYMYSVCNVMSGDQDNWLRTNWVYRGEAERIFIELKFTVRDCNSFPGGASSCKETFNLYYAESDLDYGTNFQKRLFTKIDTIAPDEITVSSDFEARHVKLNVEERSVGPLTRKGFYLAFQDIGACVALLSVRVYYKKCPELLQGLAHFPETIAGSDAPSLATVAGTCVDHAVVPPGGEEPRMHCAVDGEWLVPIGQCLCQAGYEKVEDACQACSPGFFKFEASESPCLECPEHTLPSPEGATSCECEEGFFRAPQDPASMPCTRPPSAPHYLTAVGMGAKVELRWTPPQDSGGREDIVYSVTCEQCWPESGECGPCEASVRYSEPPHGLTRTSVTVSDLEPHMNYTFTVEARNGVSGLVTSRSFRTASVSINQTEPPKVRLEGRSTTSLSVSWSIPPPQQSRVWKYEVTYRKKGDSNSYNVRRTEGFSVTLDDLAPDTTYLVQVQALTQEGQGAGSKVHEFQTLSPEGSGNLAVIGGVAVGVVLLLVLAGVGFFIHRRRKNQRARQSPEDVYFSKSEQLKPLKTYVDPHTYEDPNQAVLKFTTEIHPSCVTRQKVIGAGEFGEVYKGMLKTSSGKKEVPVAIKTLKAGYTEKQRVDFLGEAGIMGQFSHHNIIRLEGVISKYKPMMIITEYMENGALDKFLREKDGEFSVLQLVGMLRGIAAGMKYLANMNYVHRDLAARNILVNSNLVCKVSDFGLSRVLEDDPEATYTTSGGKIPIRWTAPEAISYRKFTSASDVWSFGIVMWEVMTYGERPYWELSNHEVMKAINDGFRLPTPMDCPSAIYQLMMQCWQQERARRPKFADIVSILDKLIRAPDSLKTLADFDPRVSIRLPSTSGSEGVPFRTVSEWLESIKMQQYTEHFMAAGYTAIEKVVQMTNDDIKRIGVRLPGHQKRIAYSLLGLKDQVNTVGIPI

293T-EphA2细胞结合活性: 228000
Substance: 重组EphrinA1-hFc配体蛋白 (recombinant EphrinA1-hFc ligand protein) (Fc fusion)
